Data from PMC4132754 (Nucleic Acids Research, 2014).

Experiments:
Assay in all cases: MST
[1] = target: T1, UPF1 WT (human, UniProt Q92900-2 1-1118)
T1 sequence: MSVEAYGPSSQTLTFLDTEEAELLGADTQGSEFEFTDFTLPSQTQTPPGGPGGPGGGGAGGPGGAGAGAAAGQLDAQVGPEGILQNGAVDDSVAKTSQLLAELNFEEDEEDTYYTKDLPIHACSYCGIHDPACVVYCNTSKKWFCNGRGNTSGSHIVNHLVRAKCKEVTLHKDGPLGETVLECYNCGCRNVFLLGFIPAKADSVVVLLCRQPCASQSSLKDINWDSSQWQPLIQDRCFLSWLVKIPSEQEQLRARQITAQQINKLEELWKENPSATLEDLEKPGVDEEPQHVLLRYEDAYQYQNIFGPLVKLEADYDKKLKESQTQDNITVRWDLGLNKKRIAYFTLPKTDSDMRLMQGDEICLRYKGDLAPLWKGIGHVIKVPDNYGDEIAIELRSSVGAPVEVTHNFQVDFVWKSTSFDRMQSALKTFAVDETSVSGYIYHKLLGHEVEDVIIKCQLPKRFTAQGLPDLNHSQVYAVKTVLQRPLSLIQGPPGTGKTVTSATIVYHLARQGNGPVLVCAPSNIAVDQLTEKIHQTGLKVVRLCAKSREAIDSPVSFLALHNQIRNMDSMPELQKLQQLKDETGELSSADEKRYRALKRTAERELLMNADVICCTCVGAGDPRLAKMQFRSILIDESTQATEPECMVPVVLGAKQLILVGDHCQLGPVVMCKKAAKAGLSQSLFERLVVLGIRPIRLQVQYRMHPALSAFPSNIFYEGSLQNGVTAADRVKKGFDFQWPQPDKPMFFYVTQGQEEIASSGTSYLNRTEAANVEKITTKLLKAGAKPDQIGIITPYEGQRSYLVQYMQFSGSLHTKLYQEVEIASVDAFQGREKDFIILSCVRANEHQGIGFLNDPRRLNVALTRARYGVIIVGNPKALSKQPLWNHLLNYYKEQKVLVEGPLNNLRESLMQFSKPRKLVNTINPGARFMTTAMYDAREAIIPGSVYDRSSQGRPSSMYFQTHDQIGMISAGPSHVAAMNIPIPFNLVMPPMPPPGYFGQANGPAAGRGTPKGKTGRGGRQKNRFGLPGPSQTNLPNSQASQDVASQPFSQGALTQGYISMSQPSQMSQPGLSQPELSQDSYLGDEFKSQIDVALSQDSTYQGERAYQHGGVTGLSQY

[2] = target: T2, UPF1 ΔStalk (human, UniProt Q92900-2 1-1118, del271-433)
T2 sequence: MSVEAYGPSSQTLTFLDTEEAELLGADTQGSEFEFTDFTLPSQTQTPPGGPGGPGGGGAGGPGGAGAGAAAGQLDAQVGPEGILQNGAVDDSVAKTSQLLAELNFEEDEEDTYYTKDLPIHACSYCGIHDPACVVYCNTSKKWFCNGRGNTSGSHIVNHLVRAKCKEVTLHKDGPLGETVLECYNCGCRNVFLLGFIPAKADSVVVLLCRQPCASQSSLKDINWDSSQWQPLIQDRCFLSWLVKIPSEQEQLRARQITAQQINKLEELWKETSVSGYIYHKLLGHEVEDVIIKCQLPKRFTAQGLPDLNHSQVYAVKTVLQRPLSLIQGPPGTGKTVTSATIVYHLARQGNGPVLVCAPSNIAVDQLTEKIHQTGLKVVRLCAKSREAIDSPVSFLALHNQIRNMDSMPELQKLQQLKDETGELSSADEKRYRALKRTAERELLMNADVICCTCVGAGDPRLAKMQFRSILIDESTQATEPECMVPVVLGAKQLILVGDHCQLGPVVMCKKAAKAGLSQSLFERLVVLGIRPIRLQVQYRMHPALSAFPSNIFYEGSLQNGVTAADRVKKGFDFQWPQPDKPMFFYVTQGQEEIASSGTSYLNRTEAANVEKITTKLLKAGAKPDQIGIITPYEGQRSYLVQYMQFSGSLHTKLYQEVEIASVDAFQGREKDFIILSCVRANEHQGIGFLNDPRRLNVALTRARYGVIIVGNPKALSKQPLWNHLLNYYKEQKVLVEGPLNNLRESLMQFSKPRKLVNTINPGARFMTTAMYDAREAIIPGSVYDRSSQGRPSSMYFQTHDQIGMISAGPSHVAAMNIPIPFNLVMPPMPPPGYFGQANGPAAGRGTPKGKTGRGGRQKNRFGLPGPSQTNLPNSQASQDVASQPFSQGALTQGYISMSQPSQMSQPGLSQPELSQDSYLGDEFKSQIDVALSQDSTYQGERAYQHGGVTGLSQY

[3] = target: SMG6 (human, UniProt Q86US8 1-1419)
[4] = target: T3, UPF1 Δ1C (human, UniProt Q92900-2 1-1118, del561-608)
T3 sequence: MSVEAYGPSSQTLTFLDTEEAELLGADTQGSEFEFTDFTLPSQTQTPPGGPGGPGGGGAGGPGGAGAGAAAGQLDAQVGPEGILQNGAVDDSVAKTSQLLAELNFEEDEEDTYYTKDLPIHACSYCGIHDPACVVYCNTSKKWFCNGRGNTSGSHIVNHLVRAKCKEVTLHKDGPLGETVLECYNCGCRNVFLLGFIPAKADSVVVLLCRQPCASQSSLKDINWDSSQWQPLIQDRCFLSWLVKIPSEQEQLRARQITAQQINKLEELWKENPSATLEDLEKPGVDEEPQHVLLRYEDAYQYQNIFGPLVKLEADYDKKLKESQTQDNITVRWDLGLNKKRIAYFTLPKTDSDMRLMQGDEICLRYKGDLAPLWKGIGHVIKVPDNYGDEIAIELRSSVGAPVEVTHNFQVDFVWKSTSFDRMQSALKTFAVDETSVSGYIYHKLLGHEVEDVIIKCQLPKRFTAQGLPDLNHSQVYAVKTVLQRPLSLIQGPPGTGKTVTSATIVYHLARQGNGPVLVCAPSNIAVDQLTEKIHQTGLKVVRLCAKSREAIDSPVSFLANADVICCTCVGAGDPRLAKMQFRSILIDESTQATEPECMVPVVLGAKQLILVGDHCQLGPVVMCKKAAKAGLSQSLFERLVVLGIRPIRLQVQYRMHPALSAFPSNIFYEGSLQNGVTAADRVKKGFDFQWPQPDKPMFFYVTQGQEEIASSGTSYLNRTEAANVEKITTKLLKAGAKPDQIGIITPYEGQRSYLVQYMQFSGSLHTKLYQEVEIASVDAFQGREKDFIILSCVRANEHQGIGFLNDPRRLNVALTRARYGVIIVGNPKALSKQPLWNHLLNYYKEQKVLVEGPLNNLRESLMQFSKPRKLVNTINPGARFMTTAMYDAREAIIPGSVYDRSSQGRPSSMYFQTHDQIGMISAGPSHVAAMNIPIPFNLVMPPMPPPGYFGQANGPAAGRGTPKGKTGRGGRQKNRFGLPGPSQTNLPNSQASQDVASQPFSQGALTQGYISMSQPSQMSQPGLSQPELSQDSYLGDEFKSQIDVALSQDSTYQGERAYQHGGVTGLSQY

Sequence of SMG6 (Q86US8 whole entry): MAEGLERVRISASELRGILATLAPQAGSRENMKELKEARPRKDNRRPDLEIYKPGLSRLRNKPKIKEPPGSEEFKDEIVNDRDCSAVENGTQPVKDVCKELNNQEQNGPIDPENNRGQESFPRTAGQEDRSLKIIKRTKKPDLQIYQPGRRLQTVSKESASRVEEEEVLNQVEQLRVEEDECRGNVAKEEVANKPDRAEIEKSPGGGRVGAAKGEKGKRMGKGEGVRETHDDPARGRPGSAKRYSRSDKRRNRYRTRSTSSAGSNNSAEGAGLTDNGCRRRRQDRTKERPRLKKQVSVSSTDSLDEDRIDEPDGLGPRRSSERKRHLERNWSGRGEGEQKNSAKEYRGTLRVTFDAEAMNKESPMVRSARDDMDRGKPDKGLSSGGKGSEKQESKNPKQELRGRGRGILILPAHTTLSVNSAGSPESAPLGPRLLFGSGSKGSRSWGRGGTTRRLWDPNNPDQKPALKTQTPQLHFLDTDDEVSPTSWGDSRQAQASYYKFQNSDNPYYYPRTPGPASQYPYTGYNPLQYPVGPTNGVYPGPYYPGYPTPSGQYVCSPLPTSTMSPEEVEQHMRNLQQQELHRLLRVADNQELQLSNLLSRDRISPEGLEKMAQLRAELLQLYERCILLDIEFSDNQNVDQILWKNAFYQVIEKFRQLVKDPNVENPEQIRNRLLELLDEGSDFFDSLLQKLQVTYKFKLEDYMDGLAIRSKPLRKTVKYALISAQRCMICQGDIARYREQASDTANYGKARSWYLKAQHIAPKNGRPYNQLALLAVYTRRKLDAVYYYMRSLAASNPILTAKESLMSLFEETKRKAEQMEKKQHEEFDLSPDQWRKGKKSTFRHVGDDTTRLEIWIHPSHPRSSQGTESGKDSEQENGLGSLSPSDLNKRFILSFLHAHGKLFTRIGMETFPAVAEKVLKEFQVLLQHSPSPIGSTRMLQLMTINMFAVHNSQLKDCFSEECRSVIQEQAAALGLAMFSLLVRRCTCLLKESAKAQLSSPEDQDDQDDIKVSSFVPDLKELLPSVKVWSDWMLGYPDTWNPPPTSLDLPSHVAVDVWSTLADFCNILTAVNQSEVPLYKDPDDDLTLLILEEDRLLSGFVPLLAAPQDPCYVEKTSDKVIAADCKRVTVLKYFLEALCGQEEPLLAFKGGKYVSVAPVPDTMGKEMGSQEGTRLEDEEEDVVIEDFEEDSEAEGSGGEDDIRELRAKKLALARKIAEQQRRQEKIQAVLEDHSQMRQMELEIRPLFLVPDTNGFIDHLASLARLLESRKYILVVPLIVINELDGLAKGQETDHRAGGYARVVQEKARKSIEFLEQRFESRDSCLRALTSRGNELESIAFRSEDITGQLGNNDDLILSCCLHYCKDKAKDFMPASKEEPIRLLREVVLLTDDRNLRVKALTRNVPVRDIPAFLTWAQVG

B1: U30 RNA (ssRNA)
RNA: UUUUUUUUUUUUUUUUUUUUUUUUUUUUUU
[1]
  Kd: 1.48 nM
[2]
  Kd: 6.51 nM
[3]
  binding result: no binding
[4]
  binding signal: 32.2 fold lower affinity than WT
